The chains are these.
T1: EsCas13d, nuclease-dead (Eubacterium siraeum, UniProt B0MS50, R295A;H300A;R849A;H854A)
T1 sequence: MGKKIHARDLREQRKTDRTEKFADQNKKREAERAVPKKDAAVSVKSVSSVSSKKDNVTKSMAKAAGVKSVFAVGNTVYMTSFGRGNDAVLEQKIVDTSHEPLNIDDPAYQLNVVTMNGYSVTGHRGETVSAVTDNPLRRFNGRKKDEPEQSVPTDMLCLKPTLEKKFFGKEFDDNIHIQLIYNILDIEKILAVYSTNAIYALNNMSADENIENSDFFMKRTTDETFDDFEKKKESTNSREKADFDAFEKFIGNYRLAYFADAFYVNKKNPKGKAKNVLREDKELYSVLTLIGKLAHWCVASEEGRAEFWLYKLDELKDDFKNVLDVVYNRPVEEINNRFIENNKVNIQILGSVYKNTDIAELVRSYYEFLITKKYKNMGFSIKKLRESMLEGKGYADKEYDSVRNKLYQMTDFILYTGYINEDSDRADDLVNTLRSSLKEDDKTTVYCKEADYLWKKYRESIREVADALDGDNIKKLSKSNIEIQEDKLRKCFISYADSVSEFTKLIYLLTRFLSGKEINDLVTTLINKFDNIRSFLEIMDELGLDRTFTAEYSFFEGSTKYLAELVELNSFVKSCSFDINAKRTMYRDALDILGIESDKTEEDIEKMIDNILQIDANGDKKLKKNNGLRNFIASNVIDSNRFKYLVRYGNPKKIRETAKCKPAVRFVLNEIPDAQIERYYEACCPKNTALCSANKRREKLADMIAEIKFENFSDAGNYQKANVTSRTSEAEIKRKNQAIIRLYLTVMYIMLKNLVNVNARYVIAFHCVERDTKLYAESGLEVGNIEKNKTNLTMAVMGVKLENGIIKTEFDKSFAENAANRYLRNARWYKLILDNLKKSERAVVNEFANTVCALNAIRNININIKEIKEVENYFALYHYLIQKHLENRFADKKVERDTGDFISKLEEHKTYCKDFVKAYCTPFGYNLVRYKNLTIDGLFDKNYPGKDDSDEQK

B1: target 1 MT 5'PFS GCG 3'PFS CAC (mixed)
RNA 1: CACCCGUGCAAAAAUGCAGGGGUCUAAAACUGAGCGGAUAACCUCUCUAUGG
RNA 2: GGGAAUGGAUCCACAUCUACGAAUUCGCGCCAUAGAGAGGUUAUCCGCUCACACAGAUCGGAAGAGCACACGU
B2: target 1 MT 5'PFS CCG 3'PFS CUA (mixed)
RNA 1: CACCCGUGCAAAAAUGCAGGGGUCUAAAACUGAGCGGAUAACCUCUCUAUGG
RNA 2: GGGAAUGGAUCCACAUCUACGAAUUCCCGCCAUAGAGAGGUUAUCCGCUCACUAAGAUCGGAAGAGCACACGU
B3: target 1 insG 3' of 18,insC 3' of 13 (mixed)
RNA 1: CACCCGUGCAAAAAUGCAGGGGUCUAAAACUGAGCGGAUAACCUCUCUAUGG
RNA 2: GGGAAUGGAUCCACAUCUACGAAUUCGUACCAUAGGAGAGCGUUAUCCGCUCACCGAGAUCGGAAGAGCACACGU
B4: target 1 MT 5'PFS AAG 3'PFS AUC (mixed)
RNA 1: CACCCGUGCAAAAAUGCAGGGGUCUAAAACUGAGCGGAUAACCUCUCUAUGG
RNA 2: GGGAAUGGAUCCACAUCUACGAAUUCAAGCCAUAGAGAGGUUAUCCGCUCAAUCAGAUCGGAAGAGCACACGU
B5: target 1 MT 5'PFS GCC 3'PFS CCG (mixed)
RNA 1: CACCCGUGCAAAAAUGCAGGGGUCUAAAACUGAGCGGAUAACCUCUCUAUGG
RNA 2: GGGAAUGGAUCCACAUCUACGAAUUCGCCCCAUAGAGAGGUUAUCCGCUCACCGAGAUCGGAAGAGCACACGU
B6: target 1 MT 5'PFS CUA 3'PFS AUG (mixed)
RNA 1: CACCCGUGCAAAAAUGCAGGGGUCUAAAACUGAGCGGAUAACCUCUCUAUGG
RNA 2: GGGAAUGGAUCCACAUCUACGAAUUCCUACCAUAGAGAGGUUAUCCGCUCAAUGAGAUCGGAAGAGCACACGU
B7: target 1 MT 5'PFS CCA 3'PFS ACU (mixed)
RNA 1: CACCCGUGCAAAAAUGCAGGGGUCUAAAACUGAGCGGAUAACCUCUCUAUGG
RNA 2: GGGAAUGGAUCCACAUCUACGAAUUCCCACCAUAGAGAGGUUAUCCGCUCAACUAGAUCGGAAGAGCACACGU
B8: target 1 MT 5'PFS CUA 3'PFS AUA (mixed)
RNA 1: CACCCGUGCAAAAAUGCAGGGGUCUAAAACUGAGCGGAUAACCUCUCUAUGG
RNA 2: GGGAAUGGAUCCACAUCUACGAAUUCCUACCAUAGAGAGGUUAUCCGCUCAAUAAGAUCGGAAGAGCACACGU
B9: target 1 MT 5'PFS GCC 3'PFS AAC (mixed)
RNA 1: CACCCGUGCAAAAAUGCAGGGGUCUAAAACUGAGCGGAUAACCUCUCUAUGG
RNA 2: GGGAAUGGAUCCACAUCUACGAAUUCGCCCCAUAGAGAGGUUAUCCGCUCAAACAGAUCGGAAGAGCACACGU
B10: target 1 MT 5'PFS GCC 3'PFS AAG (mixed)
RNA 1: CACCCGUGCAAAAAUGCAGGGGUCUAAAACUGAGCGGAUAACCUCUCUAUGG
RNA 2: GGGAAUGGAUCCACAUCUACGAAUUCGCCCCAUAGAGAGGUUAUCCGCUCAAAGAGAUCGGAAGAGCACACGU
B11: target 1 MT 5'PFS GCG 3'PFS ACU (mixed)
RNA 1: CACCCGUGCAAAAAUGCAGGGGUCUAAAACUGAGCGGAUAACCUCUCUAUGG
RNA 2: GGGAAUGGAUCCACAUCUACGAAUUCGCGCCAUAGAGAGGUUAUCCGCUCAACUAGAUCGGAAGAGCACACGU
B12: target 1 MT 5'PFS AAG 3'PFS AUA (mixed)
RNA 1: CACCCGUGCAAAAAUGCAGGGGUCUAAAACUGAGCGGAUAACCUCUCUAUGG
RNA 2: GGGAAUGGAUCCACAUCUACGAAUUCAAGCCAUAGAGAGGUUAUCCGCUCAAUAAGAUCGGAAGAGCACACGU
B13: target 1 MT 5'PFS CUA 3'PFS AUC (mixed)
RNA 1: CACCCGUGCAAAAAUGCAGGGGUCUAAAACUGAGCGGAUAACCUCUCUAUGG
RNA 2: GGGAAUGGAUCCACAUCUACGAAUUCCUACCAUAGAGAGGUUAUCCGCUCAAUCAGAUCGGAAGAGCACACGU
B14: target 1 U11G,G12U (mixed)
RNA 1: CACCCGUGCAAAAAUGCAGGGGUCUAAAACUGAGCGGAUAACCUCUCUAUGG
RNA 2: GGGAAUGGAUCCACAUCUACGAAUUCGUACCAUAGAGAGUGUAUCCGCUCACCGAGAUCGGAAGAGCACACGU
B15: target 1 MT 5'PFS CUA 3'PFS AUU (mixed)
RNA 1: CACCCGUGCAAAAAUGCAGGGGUCUAAAACUGAGCGGAUAACCUCUCUAUGG
RNA 2: GGGAAUGGAUCCACAUCUACGAAUUCCUACCAUAGAGAGGUUAUCCGCUCAAUUAGAUCGGAAGAGCACACGU
B16: target 1 MT 5'PFS GCC 3'PFS AAA (mixed)
RNA 1: CACCCGUGCAAAAAUGCAGGGGUCUAAAACUGAGCGGAUAACCUCUCUAUGG
RNA 2: GGGAAUGGAUCCACAUCUACGAAUUCGCCCCAUAGAGAGGUUAUCCGCUCAAAAAGAUCGGAAGAGCACACGU
B17: target 1 MT 5'PFS AAG 3'PFS AUG (mixed)
RNA 1: CACCCGUGCAAAAAUGCAGGGGUCUAAAACUGAGCGGAUAACCUCUCUAUGG
RNA 2: GGGAAUGGAUCCACAUCUACGAAUUCAAGCCAUAGAGAGGUUAUCCGCUCAAUGAGAUCGGAAGAGCACACGU
B18: target 1 MT 5'PFS CCG 3'PFS CUC (mixed)
RNA 1: CACCCGUGCAAAAAUGCAGGGGUCUAAAACUGAGCGGAUAACCUCUCUAUGG
RNA 2: GGGAAUGGAUCCACAUCUACGAAUUCCCGCCAUAGAGAGGUUAUCCGCUCACUCAGAUCGGAAGAGCACACGU
B19: target 1 MT 5'PFS GGU 3'PFS UCA (mixed)
RNA 1: CACCCGUGCAAAAAUGCAGGGGUCUAAAACUGAGCGGAUAACCUCUCUAUGG
RNA 2: GGGAAUGGAUCCACAUCUACGAAUUCGGUCCAUAGAGAGGUUAUCCGCUCAUCAAGAUCGGAAGAGCACACGU
B20: target 1 MT 5'PFS GCC 3'PFS AAU (mixed)
RNA 1: CACCCGUGCAAAAAUGCAGGGGUCUAAAACUGAGCGGAUAACCUCUCUAUGG
RNA 2: GGGAAUGGAUCCACAUCUACGAAUUCGCCCCAUAGAGAGGUUAUCCGCUCAAAUAGAUCGGAAGAGCACACGU
B21: target 1 MT 5'PFS GCG 3'PFS ACG (mixed)
RNA 1: CACCCGUGCAAAAAUGCAGGGGUCUAAAACUGAGCGGAUAACCUCUCUAUGG
RNA 2: GGGAAUGGAUCCACAUCUACGAAUUCGCGCCAUAGAGAGGUUAUCCGCUCAACGAGAUCGGAAGAGCACACGU
B22: target 1 MT 5'PFS GCG 3'PFS ACA (mixed)
RNA 1: CACCCGUGCAAAAAUGCAGGGGUCUAAAACUGAGCGGAUAACCUCUCUAUGG
RNA 2: GGGAAUGGAUCCACAUCUACGAAUUCGCGCCAUAGAGAGGUUAUCCGCUCAACAAGAUCGGAAGAGCACACGU
B23: target 1 MT 5'PFS ACA 3'PFS CAU (mixed)
RNA 1: CACCCGUGCAAAAAUGCAGGGGUCUAAAACUGAGCGGAUAACCUCUCUAUGG
RNA 2: GGGAAUGGAUCCACAUCUACGAAUUCACACCAUAGAGAGGUUAUCCGCUCACAUAGAUCGGAAGAGCACACGU
B24: target 1 MT 5'PFS GUC 3'PFS CGU (mixed)
RNA 1: CACCCGUGCAAAAAUGCAGGGGUCUAAAACUGAGCGGAUAACCUCUCUAUGG
RNA 2: GGGAAUGGAUCCACAUCUACGAAUUCGUCCCAUAGAGAGGUUAUCCGCUCACGUAGAUCGGAAGAGCACACGU
B25: target 1 MT 5'PFS GCC 3'PFS CCA (mixed)
RNA 1: CACCCGUGCAAAAAUGCAGGGGUCUAAAACUGAGCGGAUAACCUCUCUAUGG
RNA 2: GGGAAUGGAUCCACAUCUACGAAUUCGCCCCAUAGAGAGGUUAUCCGCUCACCAAGAUCGGAAGAGCACACGU
B26: target 1 MT 5'PFS CCG 3'PFS CUG (mixed)
RNA 1: CACCCGUGCAAAAAUGCAGGGGUCUAAAACUGAGCGGAUAACCUCUCUAUGG
RNA 2: GGGAAUGGAUCCACAUCUACGAAUUCCCGCCAUAGAGAGGUUAUCCGCUCACUGAGAUCGGAAGAGCACACGU
B27: target 1 MT 5'PFS CCA 3'PFS ACG (mixed)
RNA 1: CACCCGUGCAAAAAUGCAGGGGUCUAAAACUGAGCGGAUAACCUCUCUAUGG
RNA 2: GGGAAUGGAUCCACAUCUACGAAUUCCCACCAUAGAGAGGUUAUCCGCUCAACGAGAUCGGAAGAGCACACGU

As a reminder, the Kd is the free concentration of one partner at which half of the binding sites on the other are occupied at equilibrium, for simple one-to-one binding. Low readings indicate a tighter complex, high ones a looser complex.

The target of this data set is T1, EsCas13d, nuclease-dead. Briefly: crRNA (strand 1, pre-loaded); Mg2+; 40 mM Tris-HCl pH 7.5, 150 mM NaCl, 6 mM MgCl2, 1 mM DTT, 0.1% Tween-20, 0.2 mg/ml BSA; 25 C; 10 min per concentration, then washed. The conditions noted are these: tags: His6-TwinStrep-SUMO cleaved; N-terminal SNAP kept (SNAP-Surface 488); label: 3' end held by stalled T7 RNA polymerase.
In turn, B1 came in with a Kd of about 42 nM.
As to B2, the Kd came out at 7.9 ± 2.9 nM.
For B3 the value was 70 ± 24 nM; for B4, 26.5 ± 10 nM.
For B5 the value was 12.9 ± 3.15 nM.
Under B6 stands 37 ± 10 nM; under B7, 14 ± 5.5 nM.
For the molecule B8, the equilibrium dissociation constant (Kd) came to 7.15 ± 1.5 nM.
Regarding B9, the Kd was determined as 23 ± 7.5 nM.
Under B10 stands 28 ± 6.5 nM; under B11, 18.2 ± 3.9 nM; under B12, 26.6 ± 7.15 nM.
Under B13 stands 14.2 ± 3.1 nM.
For B14 the value was about 50 nM; for B15, 6.05 ± 1.65 nM; for B16, 59.5 ± 19 nM.
As to B17, the equilibrium dissociation constant (Kd) amounted to 33 ± 8.5 nM.
Under B18 stands 3.15 ± 1 nM; under B19, 44 ± 19 nM; under B20, about 27 nM.
For B21 the value was 49.5 ± 10 nM; for B22, 32.5 ± 14.5 nM.
For B23 the value was about 20 nM.
B24 gave a Kd of 13.2 ± 1.9 nM.
Under B25 stands 95 ± 40 nM; under B26, 1.95 ± 0.465 nM; under B27, 3.95 ± 1.6 nM.

The values above are taken from paper PMC10786891, “Massively parallel profiling of RNA-targeting CRISPR-Cas13d”.
